Experimental data taken from the RNAGym collection of RNA variant scans (doi:10.1073/pnas.2313332121).
This sample holds only a part of the variants without activity.

B1: TPR 5TU (parent)
chain: GGAUCUUCUCGAUCUAACAAAAAAGACAAAUCUGCCACAAAGCUUGAGAGCAUCUUCGGAUGCAGAGGCGGCAGCCUUCGGUGGCGCGAUAGCGCCAACGUUCUCAACUAUGACACGCAAAACGCGUGCUCCGUUGAAUGGAGUUUAUCAUG

Variants of: B1
Assay: polymerase ribozyme fitness, log enrichment relative to wild type (log ratio); higher = more active; in vitro selection for triplet polymerase activity
Outline: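 Mutant libraries for each subunit of a heterodimeric triplet polymerase ribozyme were made by PCR and then transcribed. Each library underwent one round of in vitro selection in triplicate: annealing with a biotinylated primer, the partner subunit and triplets, frozen incubation at −7 °C, gel excision of extended constructs, streptavidin-bead capture and RT-PCR. Input and output libraries were Illumina-sequenced, and only genotypes with ≥10 input reads and ≥1 read per output were kept. Fitness is the logarithm, base 2, of genotype enrichment over wild-type enrichment, computed from inverse-variance-weighted replicate averages.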

**Q.** With GGAUCUUUUCGAUCUAACAAAAAAGACUAAUCUGCCACAAAGCUUGAGAGCAUCUUCAGAUGCAGAGGCGGCACCCUUCGGUGGCGCGAUAGCGCCAACGUUCUCAACUAUGACACGCAAAACGCGGGCUCCCUUGAAUGGUGUUUAUGAUG [C8U A28U G58A G74C U127G G133C A142U C149G] as the variant, how does the “polymerase ribozyme fitness (log ratio)” value read?
**A.** ≤ -4.2

**Q.** For GGAUCUUUUCGAUCUAACCAAAAAGACAAAUCUGCCACAAAGCUUGAGAACAUCUUCGGAUGCAGAGGCGGCAGCCUUCGGUGGCGCGAUAGCGCUAACGUUCUCAACUAUGACACGCAAAACGCGUGCUCCGUUGAAUGGAGUUUAUCAUG [C8U A19C G50A C96U], which “polymerase ribozyme fitness (log ratio)” value is on record?
**A.** ≤ -4.2

**Q.** With GGAUCUUGUCGAUCGAACAAGAAAGACAAAUCUGCCACAAAGCUUGAGAGCAUCUUCGGAUGCAGAGGCGGCAGCCUUCGGUUGCGCGAUGGCGCCAACGUUCUUAACUAUGACACGCAAAACGCGUGCUCCGUUGAAUGGAGCUUAACAUG [C8G U15G A21G G83U A91G C105U U144C U148A] as the variant, how does the “polymerase ribozyme fitness (log ratio)” value read?
**A.** ≤ -4.2

**Q.** Which “polymerase ribozyme fitness (log ratio)” value does the source give for GGAUCUUUUCGAUCUAACAAAAAAGACUAAUCUGCCACAAAGCUUGAGAGCAUCUUCGGAUUCAGAGGCGGCAGCCUUCGGUGGCGCGAUAGCGCCAACGUUCUCAACUAUGCCACGCAAAACGCGUGCUCCGUUGAAUGGAGUUUAUCAUG [C8U A28U G62U A113C] here?
**A.** ≤ -4.2

**Q.** Which “polymerase ribozyme fitness (log ratio)” value does the source give for GGAUCUUUUCGAUCUAACAGAAAAGACAAAUCAGCCACAAAGCUUGAGAGCAUCUACGGAUGCAGAGGCGGCAGCCUUCGGUGGCGCGAUAGCGACAACGUUCUCAACUAUGACACGCAAAACGCGUGCUACGUUGAAUGGAGUUUAUCAUG [C8U A20G U33A U56A C95A C131A] here?
**A.** ≤ -4.2

**Q.** With GGAUCUUUUCGAUCUAGCAAAAAAGACAAAUCUGCCACAAAGCUUGAGAGCAUCUUCGGAUGCAGAGGCGGCAGCCUUCGGUGUCGCGAUAGCGCCAACGUUCUCAACUAUGACACGCAAAACGCGUGCUCCCUUGAAUGGAGUUUAUCAUG [C8U A17G G84U G133C] as the variant, how does the “polymerase ribozyme fitness (log ratio)” value read?
**A.** ≤ -4.2

**Q.** Which “polymerase ribozyme fitness (log ratio)” value does the source give for GGAUCUUUUCGGUCUAACAAAAAAGACUAAUCUGCCACAAAGCUUGAGAGCAUCUUCGGAUGCAGAGGCGGCAACCUUCGAUGGCGCGAUAGCGCCAAUGUUCUCAACUAUGACACGCAAAACGCGUGCUCCGUUGAAUGGAGUUUAUCAUG [C8U A12G A28U G74A G81A C99U] here?
**A.** -4.18

**Q.** Which “polymerase ribozyme fitness (log ratio)” value does the source give for GGAUCUUUUCGAUCUAACAAGAAAGACAAAUCUGCCACAACGCUUGAGAACAUCUUCGGAUGCACAGGCGGCAGCCUUCGGUGGCGCAAUAGCGCCAACGUUCUCAACUAUGACACGCAAAACGCGUGCUCCGUUGAAUGGAGUUUAUCAUG [C8U A21G A41C G50A G65C G88A] here?
**A.** ≤ -4.2

**Q.** For GGAUCUUUUCGAUCUAACAAAAACGACAAAUCUGCUACAAAGCUUGAAAGCAUCUUCGGAUGCAGAGGCGGCAGCCUUCGGUGGCGCGAUAGCGGCAACGUUCUUAACUAUGACACGCAAAACGCGUGCUCCGUUGAAUGGAGUAUAUCAUG [C8U A24C C36U G48A C95G C105U U145A], which “polymerase ribozyme fitness (log ratio)” value is on record?
**A.** ≤ -4.2

**Q.** With GGAUCUUUUCGAUCUAACAGAAAAGACAAAUCUGCCACAAAGCUUGAGAGCAUCUUCGGAUGCAGAGGCGGCAGCCUUCGGUGGCGCGAUAGCGCCAACGUUCUCAACUAUGACACGCAAAACGCGUGCUCCGUUGAAUGGAGUUUAUCAUG [C8U A20G] as the variant, how does the “polymerase ribozyme fitness (log ratio)” value read?
**A.** -3.94

**Q.** Which “polymerase ribozyme fitness (log ratio)” value does the source give for GGAUCUUUUCGAUCUAACAAAAAUGACAAUUCUGCCACAAAGCUUGAGAGCAUCUUCGGAUGCAGAGGCGGCAGCCUUCGGUGGCGCGAAACCGCCAACGUUCUCAACUAUGACACGCAAAACGCGUGCUCCGUUGAAUGGAGUUUAUCAUG [C8U A24U A30U U90A G92C] here?
**A.** ≤ -4.2

**Q.** Which “polymerase ribozyme fitness (log ratio)” value does the source give for GGAUCUUGUCGAUCUAACAAAAAAGACAAAUCUGCCACAAAGCUUGAGAGCACCUUCCGAUGCAGAGGCGGCAGCCUUUGGUGGCGCGGUAGCGCCAACGUUCUCAACUAUGACACGCAAAACGCGUGCUCCGUUGAACGGAGUUUAUCAUG [C8G U53C G58C C79U A89G U139C] here?
**A.** ≤ -4.2

**Q.** For GGAUCUUUUCGAUCUAACAAAAAAGUCAAAUCUGCCACAAAGCUUGAGAGCAUCUUCGGAUGCAGAGGCGGCAGCCUUCGGUGGCGCGAUAGCGCCAACGUUCUCAACUAUGACACGCAGAACGUGUGCUCCGUUGAAUGGAGUUUAUCAUG [C8U A26U A120G C125U], which “polymerase ribozyme fitness (log ratio)” value is on record?
**A.** ≤ -4.2

**Q.** For GGAUCUUGUCGAUCUAACAAAAAAGACAAAUCUGCCACAAAGCUUGAGAGCAUCAUCGGAUGCAGAGGCGGCAGCCUUCGGUGGCGCGAUAGCGCCAACGUUCUCAACUAUGACACGCAAAACGCGUGCUCCGUUGAAUGGAGUUUAUCAUG [C8G U55A], which “polymerase ribozyme fitness (log ratio)” value is on record?
**A.** -2.91

**Q.** For GGAUCUUUUCGAUCUGACAAGAAAGACAAAUCUGCCACAUAGCUUGAGAGCAUCUUCGGAUGCAGAGGCGGCAGCCUUCGGUGGCGCGAUAGCGCCAACGUUCUCAACUAUGACACGCAAAACGCGUGCUCCGUUGAAUGGAGUUUAUCAUG [C8U A16G A21G A40U], which “polymerase ribozyme fitness (log ratio)” value is on record?
**A.** -4.04

**Q.** With GGAUCUUUUCGAUCUUACAAAAAAGACAAAUCUGCCACAAAGCUUGAGCGCAUCUUCGGAUGCAGAGGCGGCCGCCUUCGGUGGUGCGAUAGCGCCAACGUUCUCAAGUAUGACACGCAAAACGCGUGCUCCGUUGAAUGGAGUUUAUCAUG [C8U A16U A49C A73C C85U C108G] as the variant, how does the “polymerase ribozyme fitness (log ratio)” value read?
**A.** ≤ -4.2

**Q.** For GGAUCUUUUCGAUCUAACAAAAAAGACGAAUCUACUACAAAGCUUGAGAGCAUCUUCGGAUGCAGAGGCGGCAGCCUUCGGUGGCUCGAUGGCGCCAACGUUCUCAACUUUGACACGCAAAACGCGUGCUCCGUUGAAUGGAGUUUAUCAUG [C8U A28G G34A C36U G86U A91G A110U], which “polymerase ribozyme fitness (log ratio)” value is on record?
**A.** -4.19

**Q.** Which “polymerase ribozyme fitness (log ratio)” value does the source give for GGAUCUUUUCGAUCUAACAACAAAUACAAAUCUGCCACAAAGCUUGAGAGCAUCUUCGGAUGCAGAGGCGGCAGCCUUCGGUGGCGCGAUAGCGCCUACGUUCUCAACUAUGACACGCAAAACGCGUGCUCCGUUGAAUGGAGUUUAUCAUG [C8U A21C G25U A97U] here?
**A.** ≤ -4.2

**Q.** With GGAUCUUGUCGAGCUAACAAAAAAGACAAAUCUGCCACAAAGCUUGAGAGCAUCUUCGGAUGCAGAGGCGGCAGCCUUCGGUGGCGCGAUAGCGCCAACGUUCUCAACUAUGACAGGCAAAACGCGUGCUCCGUUGAAUGGAGUUUAUCAUG [C8G U13G C116G] as the variant, how does the “polymerase ribozyme fitness (log ratio)” value read?
**A.** -3.71
